Assay: soluble fraction after stress (log2 fold change); higher = more stays soluble; pooled small domains, quantitative proteomics
Settings: stress: 50 degC
Method in brief: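 Quantitative proteomics served as the high-throughput read-out for pooled custom libraries of small protein domains. Each was stressed at 50°C. Aggregation propensity is expressed as the base-two log fold change in soluble protein after stress. A higher value means a larger share of the protein remains in solution.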

| Sequence | soluble fraction (log2) |
| --- | --- |
| HMSLSPAATRSRGYPSVLLTMKAPERLVSAAGPDRRAYLVGTDPLVIELPGVKGLYKVDPDQIVFE | 0.0566 |
| HMEVPDTIIRLRELVAAMPEQWQKVYRLVFMEGLSKAKAGKKIGISDVRVGQLVKKINAAIAGDETLK | -0.714 |
| HMSRQDYLQTIYRLSVGKGYTTNKKIADFLSVSKPSVTEMIGKLQGEGLVAMDGAHIFLTEDGAEQ | -0.567 |
| HMRLYTQDVAVLNRDVIQGEVITSDMVTTVNVHKRTVPTGALNLSEIPGNVAKFNIPASIPITASMVTK | 0.0171 |
| HMKEIATKSELTYFIQRLLDLLEETNFFNPEERKKAMINHIEAIFRRNNLTLQELNMLHGIITSITR | -2.62 |
| HMGAQKITIPDFSNQEATQVYAELKNMGLEYTESRMNHPSIASGYVIKTEPTKGSEVKAGTTVTVYVSLG | -0.0535 |
| HMSTESAHLGERMLNQALRAMHIEPDQITEAHWQKLIRDYGLKKKSEILTDIGLGKRQNVMVAHQLLAMG | -0.106 |
| HMISSKDIINDEDGARLGKIADVEIDVATGKILSVHVYRSFKLLHLFGNKDVVQIPWNKIMKIGSDVVIVE | -0.0123 |
| HMNVNEIREMYPEGTQIVLTEMRGENQMPYGLKGTVKFVDDAGQIHMKWENGSSLALNINEDTFEKVE | 0.147 |
| HMSSEMATLRSIVDNKQAEKVHGMMVDMFTASAMVQVYDKVNDENQAKMREMLKTQKGFQRMADFALSKI | -0.172 |
| HMSNEWIEISAKTVDDAINEGLIRLGTTTDKMDVEVLEKESAGFLGFIGKHDAKIRVRFKEV | 0.105 |
| HMKNLTERQQQIIALISGNPLITRAEIASAIGFSVKTIERELSILSEIVSYVGSKKGGHWEIQT | -1.15 |
| HMEETLEELGKEYESAFTMYEKLWSYYKKQNYHQVNHKRSERYEILLGFVREYHPEKVEYYRELL | 0.0169 |
| HMQRYFINEPVPEDQRLVLPKDIAHHLVDVLRAEQNDELEVALNDQKVYLARLISLNPATVELQSDLG | 0.266 |
| HMNKMHKLPSVSEILNKVRLQKIHNESFIKFKIKEEIDRYRKLAKKDQLFLSRDEITYEIIEKLLNFSMPS | -2.57 |
| HMTLPEKSKRLFSQDDFWDQIFYRIGEGQSLREVSKYYKIPYTTIHDRIHSDEGIKLKYLEALTS | -0.71 |
| HMGMAETTARILQLLGLLQSRRGWSGQELAERLGVTTRSVRRDVERLRELGYPVHASAGHGGGYQLGA | -1.8 |
| HMKTALDEAKDFLNGALSKGHRPASDVVDEAKEASISEKTLKRAKLAIGIITRKEGFGSEGKWVWELPAR | -0.341 |
| HMKTLNKRQQDIINLAREEGFVTVEHLSEYFKVTQQTIRRDLGYLSENLYLARTYGGAFFQS | -0.872 |
| HMFGGIEFGWSQLPDGRVEYIIQLDDQAIAALKNGRSLTSSLPPEVQNADRIRIQYGAGPVEKGLLLQ | 0.0674 |
| HMNDENIIIEEIKYFIKSNQIKEQEKLPSERNLSELFTVSRFSLRKALRHLVDTGYLYVKDKSGYYYQGD | -2.47 |
| HMVGDLPPQELRVFELIGDGLSNREIADEMILAEKTIKNYVTSLLQKLGMQRRTEAAAFAARLDER | -0.0396 |
| HMLGFELVGIRGNNPESTIIILERDDYRLVEQGQNINSSVIFSHIDGSRAYFFDGQTYTFLDI | -2.95 |
| HMKPVSEMDNMEWVREQYFQNMIYEIGEWVKDKKTGIVGEIVKRGTNYVTIVQEDFSLHKIWLEDLETTE | -0.325 |
| HMHKREKSFFETIYDDIPGIGKKRRVQLLSAYPTLDSLKSVTLEELKQIVPEESAKLILEKRDSR | 0.0407 |

| Sequence | soluble fraction (log2) |
| --- | --- |
| HMSDPVDDLLLRISQQAGVARGQLVAELNMLVQDRFGGNLRHEAAAVLMAKRYGIEFRDLLPALREHLVKN | -0.00206 |
| HMINRMGRLVEALSHMIANTKPGARLPSEPELARQLGVSRATLREAMRTFEAQGMIHRRQGAGTFVVH | -0.402 |
| HMLPIKLDLEIGENVRVVSGPLENFVGSVVSFDTDQQKVKLVVEMFGRKTPVELDFIEVQKLR | -0.435 |
| HMGAITGLQSRVAFLKGQGTITDAEAKTAMAFLPDPTDSKEVKIAKIGQAREYIMSLIENRA | -0.106 |
| HMGFAEFWLAYPKKVGKGEAERKWKTLKPDAGAVLSAVKRQSASEQWRKDGGRYIPNPATWLHQRRWE | -0.0238 |
| HMEYYEDEELDRFRGRNSDQYSDAEIEEFNEILTTLRSEEVAGWIRSLQLREIALPDELKDDVILLVG | -0.804 |
| HMFIQLSQEEKKVVEGLQQRSKTHLDALALEVGQNISKTAAMLMELEMKGVVRALPGKYYEL | -0.888 |
| HMNSHKIIDRLNQMITEKDLSEEMPAITEAFKNNERSAEDLKKYVAENLSKKLNAEEREKFVSLILQYRN | 0.039 |
| HMKPDDDMLLKILTKLFIQKQFVINSKDIFQYILKNTNRTYENIINIVNRLDTLSIEKKRQLTIPLIKEI | -0.457 |
| HMNMAVELEDGTQIFVFSEDGEFAGKRAVIADEEGRPTEENAPAGTHTLRDGRSIVVGEGGVIESVVET | 0.0438 |
| HMHQVHKIDGVKYYLHLVEKGNTLYGISKQYNVSVERIEKANTEALSDGLKENQTLLIPVTSDNKKT | 0.0414 |
| HMDSVTVPDISGYSPKAAEDSINNAGLKINEQGLSGSGDGQVVERTSPSAGSKVKKGDSVTVYYSKA | 0.00106 |
| HMKVTADVVVADRLKAWIISNNLKPGDRLPTEQKLSEELGVARHTLREGIKRLSQLGIIGSRTGSGMYVKN | 0.0235 |
| HMSETLESYTTRLKQLEEIADSFQGVDKTFAIQAGREIRVMVVPEQISDDDMILLARDISNQIEENLDY | -0.122 |
| HMDEEVLVVQEGGERLDVFVAANAEGITRSFVQNLIKKGDVTVDGAPRKANYRLRSGQVVRFSLPEP | -0.328 |
| HMSIEIKTIDVKHADLFQLQDILRNLYPELNIVPDQRNNKLILQGKRELLVEAERLTLQLDTE | 0.0556 |
| HMGTYYTEIIAQLKKEIANGTWKLGERLPGELALAKQFNVSRSSIREALKALAYAGIVESKPGRGTFLLHV | -0.875 |
| HMRKPLDQSWVPDDDAMKILTNSGIEKEFIKNEIPEFILYWSDKGEISDSWNTKFISQIRRQWAKNQ | -0.222 |
| HMSSKAVLEKFEALFIDQMLQSMRKATVRSELFDSEGIKLYESLFDKEISEELAKSGGLGLTKDLEQQL | -0.888 |
| HMGGVEWLTHPIGPRDSLQVLARAGLEARPTSDGDYEIYGQERWPQRDQARLMGWLRRFGQWVWQALYDK | -0.378 |
| HMDQDLGFLINKYFELGKDYNTLVEIYEKIKEYIASIDKKMLEYTKNFTIEQLKKWLDDGTINNIILTLG | -0.142 |
| HMRNTETMKEIQAFVEDYFFEYHQSPSMQKVADAIGTSKSTAYYYVMEMARNGMLHYDGKTIETPHTQKS | -1.09 |
| HMNSTNYQVIITANGGLNIRAGASTAYARIGGYAKGTVVTILAESNGFGKTDKGWISLNYTSKDLD | -3.07 |
| HMQLASILDDIPGIGKKRKENLLTHFGSFSKIQSADIDALAEVPGISRDLAETIHTYLKTHQ | 0.0967 |
| HMANAGKFDSDMGEKINFPGNRVSLTPSELEAARELAAIMGDRFFSQLIPTTSKVTVTEMLQSLK | 0.3 |

| Sequence | soluble fraction (log2) |
| --- | --- |
| HMLYETLKKGDQGTSVKTLQEKLKALGYLTGAADGKYGAGTETAVKSFQKAAGLTETGTADPETLSAVYAA | 0.17 |
| HMGYTTSFVVQLKNAVSISFDEIDQNLRKLPGVEDVVIVEEAAMAYLKVDRQHFREEQLAHFEFVRQ | -0.29 |
| HMEKSSALRAKEAFMALYHDGKFKPGTKIPSESNMAELLGVSRETWRKALALLRGDGVLYSKHGSGTYLLE | 0.11 |
| HMPYSKIALQISHLLKSHGVPLSNKQIYEKLINDFQLSINYSNLTNNILPRMNSDSSINVEKVTRGYWQY | -0.634 |
| HMTVKEYNRAVDEYSDAVWRFIRGNLRDEDRANDIVQDSFEKLWMHVTEIDYSVAKSWLFSTAYNNMIDI | -0.277 |
| HMIPDLPAVGVNVHKERRRQQLSLDALAAGSGVSKAMLSQIESGKVNPTVATMWKIAHALGVDFELLLKGE | -0.154 |
| HMLMSDEENAEFTKLYRQLVFKLHPDLNPNQTKDEENLWHKVQMAYKGGDLEEMRSLAIILDAQ | -0.0474 |
| HMQISDEGELSGIVRKIIDANPQSVADYKAGKKKAIGFLVGQIMIETKGRANPASVNELLIKKLE | -0.0642 |
| HMDNWAALLSEREVQVSRLVANGASNKEIADHLAITERTVKAHLTAVFEKLGVRDRLQLSLRVNGL | -2.01 |
| HMAAVPYQVKITTEDLRIRTGPGTNHDFTGQYTGKGVFTIVEESEGSGAPIWGRLKSGAGWIGIDPSWSVR | -0.706 |
| HMKTITVEDEQAGKRLDKALAELFPHYSRSALEKLIKEGQVLVNKSFVKSKYSLKLGDEISLQFEQL | 0.173 |
| HMHSPLLDRYLAEVGWRLRHLSGAQREDILAGLREHIADLESAGVAPEEIVARLGSPESVADAAAGEF | -0.334 |
| HMTVSLLQTRQRLQALADLGHYKGDLGAAWGPDAIEALKKAQATLGVTVDGKWGPQTEDAIQVALKVQ | -0.284 |
| HMKLIRIPFILTEGPDSQKITIDVDGDEEFRLGDVFEEDDKLWTVNQILVSGERKAKRSMAGEVMRISALR | -1.26 |
| HMGTHDAGTRFFDNLDSLLQNRDATRADVLAVYLLAVSLGFRGKHRSVSSAPQIAHYRNQAYVTLFQ | 0.546 |
| HMTDIDATSIERAVAKRRHFFLSNIQDLTMKMARRLIEKDLGLAPKHLDAAPFKTRITELVDAVIALGD | -0.165 |
| HMEAEDLRDWVGARGIAYTALRPAGIAVVNGRRVDVVSEGAFVNRDDPVEVVRVEGRRIVVKP | -0.143 |
| HMVITISEADVSGTYTKSITQGDWKYIRTWTPFEDERLYDLAKDPMELRDLAPAAPSKLAELRELLSALVS | -1.51 |
| HMDLANRSLDRGITILESLARNGASSLADLHRDSGIAKSTIRRLLGTLIQHRLVRRSVADGLYRVTIPLPA | -1.18 |
| HMQKKYLAVKEYLLEQINSGAYQPDEPIPPEREMAAMLGVNRMTLRRAVEELMYEGLLIRKKGSGTFLTK | -1.52 |
| HMASAKTVAQSGTYKFAKTTAIKSSASDAASTVGTYYKGNTVNYNAKVTTNGQTWLRYTSYSGAQYYVKVS | -3.18 |
| HMFDLSQRQEQIIEIVRKHGPITGEKIADLLYVTRAALRPDLAILTMSGYLEAKPRVGYTYK | -1.2 |
| HMSYDAINGYEPSDLRGSLTLEQTASMLNLPLTDVYARLGLPANYPSGATLKDGAADMGMGLSDFKHQLF | -0.0605 |
| HMRQNPESFLNHKVKKNESLESLTKKYELTENEIIFYNPLIQKIGLKKRMILKIPIYNNQNLVTKSVD | 0.256 |
| HMQIDRLFDIVYTLLRKKSATAAELAERFGVSKRTILRDIETLSVAGIPILTSPGKGGGVSISSSF | -0.881 |
